{
  "source": "paper PMC7055384",
  "about": "“The resolution revolution in cryoEM requires high-quality sample preparation: a rapid pipeline to a high-resolution map of yeast fatty acid synthase” (IUCrJ, 2020)",
  "proteins": {"B1": {"name": "yeast fatty acid synthase subunit α (FAS2) (enzyme, S. cerevisiae)", "chain": "MKPEVEQELAHILLTELLAYQFASPVRWIETQDVFLKDFNTERVVEIGPSPTLAGMAQRTLKNKYESYDAALSLHREILCYSKDAKEIYYTPDPSELAAKEEPAKEEAPAPTPAASAPAPAAAAPAPVAAAAPAAAAAEIADEPVKASLLLHVLVAHKLKKSLDSIPMSKTIKDLVGGKSTVQNEILGDLGKEFGTTPEKPEETPLEELAETFQDTFSGALGKQSSSLLSRLISSKMPGGFTITVARKYLQTRWGLPSGRQDGVLLVALSNEPAARLGSEADAKAFLDSMAQKYASIVGVDLSSAASASGAAGAGAAAGAAMIDAGALEEITKDHKVLARQQLQVLARYLKMDLDNGERKFLKEKDTVAELQAQLDYLNAELGEFFVNGVATSFSRKKARTFDSSWNWAKQSLLSLYFEIIHGVLKNVDREVVSEAINIMNRSNDALIKFMEYHISNTDETKGENYQLVKTLGEQLIENCKQVLDVDPVYKDVAKPTGPKTAIDKNGNITYSEEPREKVRKLSQYVQEMALGGPITKESQPTIEEDLTRVYKAISAQADKQDISSSTRVEFEKLYSDLMKFLESSKEIDPSQTTQLAGMDVEDALDKDSTKEVASLPNKSTISKTVSSTIPRETIPFLHLRKKTPAGDWKYDRQLSSLFLDGLEKAAFNGVTFKDKYVLITGAGKGSIGAEVLQGLLQGGAKVVVTTSRFSKQVTDYYQSIYAKYGAKGSTLIVVPFNQGSKQDVEALIEFIYDTEKNGGLGWDLDAIIPFAAIPEQGIELEHIDSKSEFAHRIMLTNILRMMGCVKKQKSARGIETRPAQVILPMSPNHGTFGGDGMYSESKLSLETLFNRWHSESWANQLTVCGAIIGWTRGTGLMSANNIIAEGIEKMGVRTFSQKEMAFNLLGLLTPEVVELCQKSPVMADLNGGLQFVPELKEFTAKLRKELVETSEVRKAVSIETALEHKVVNGNSADAAYAQVEIQPRANIQLDFPELKPYKQVKQIAPAELEGLLDLERVIVVTGFAEVGPWGSARTRWEMEAFGEFSLEGCVEMAWIMGFISYHNGNLKGRPYTGWVDSKTKEPVDDKDVKAKYETSILEHSGIRLIEPELFNGYNPEKKEMIQEVIVEEDLEPFEASKETAEQFKHQHGDKVDIFEIPETGEYSVKLLKGATLYIPKALRFDRLVAGQIPTGWNAKTYGISDDIISQVDPITLFVLVSVVEAFIASGITDPYEMYKYVHVSEVGNCSGSGMGGVSALRGMFKDRFKDEPVQNDILQESFINTMSAWVNMLLISSSGPIKTPVGACATSVESVDIGVETILSGKARICIVGGYDDFQEEGSFEFGNMKATSNTLEEFEHGRTPAEMSRPATTTRNGFMEAQGAGIQIIMQADLALKMGVPIYGIVAMAATATDKIGRSVPAPGKGILTTAREHHSSVKYASPNLNMKYRKRQLVTREAQIKDWVENELEALKLEAEEIPSEDQNEFLLERTREIHNEAESQLRAAQQQWGNDFYKRDPRIAPLRGALATYGLTIDDLGVASFHGTSTKANDKNESATINEMMKHLGRSEGNPVIGVFQKFLTGHPKGAAGAWMMNGALQILNSGIIPGNRNADNVDKILEQFEYVLYPSKTLKTDGVRAVSITSFGFGQKGGQAIVVHPDYLYGAITEDRYNEYVAKVSAREKSAYKFFHNGMIYNKLFVSKEHAPYTDELEEDVYLDPLARVSKDKKSGSLTFNSKNIQSKDSYINANTIETAKMIENMTKEKVSNGGVGVDVELITSINVENDTFIERNFTPQEIEYCSAQPSVQSSFAGTWSAKEAVFKSLGVKSLGGGAALKDIEIVRVNKNAPAVELHGNAKKAAEEAGVTDVKVSISHDDLQAVAVAVSTKK", "modifications": "additional density at Ser1440 suggesting phosphorylation", "notes": "fatty acid synthase subunit α, S. cerevisiae, encoded by FAS2 on a pRS shuttle vector; holds the PPT domain at its C-terminus; this follows from DM4 holding the PPT domain, which it places in subunit α"}},
  "molecular_target": "the molecule itself",
  "experiment": "cryo-EM structure; FAS (0.3 mg/ml, buffer 100 mM sodium phosphate pH 6.5) incubated with 1 mM NADPH and 1 mM malonyl-CoA for 5 min, on hydrophilized graphene-coated Quantifoil grids; D3 symmetry applied; 3.1 Å",
  "data": [
    {"protein": "B1", "values": [
      {"measurement": "binding result", "result": "binds"}
    ]}
  ]
}
